The record followed here is PMC8588036, “Molecular Cloning and Identification of NADPH Cytochrome P450 Reductase from Panax ginseng” (Molecules, 2021).

One may read the Km as the concentration of substrate that gives half-maximal velocity. Usually kcat stands for the maximal rate divided by the concentration of active sites. In general, kcat/Km refers to the turnover number divided by the Michaelis constant.

For data set [1], the system named is NC(=O)C1=CN([C@@H]2O[C@H](COP(=O)(O)OP(=O)(O)OC[C@H]3O[C@@H](n4cnc5c(N)ncnc54)[C@H](OP(=O)(O)O)[C@@H]3O)[C@@H](O)[C@H]2O)C=CC1. Briefly: purified protein. The conditions noted are these: 100 μmol/L cytochrome c, NADPH 0-400 μmol/L, 50 mmol/L Tris HCl pH 7.4, 0.1 mmol/L EDTA, 25 °C.
In data set [2] the test system is T1, NC(=O)C1=CN([C@@H]2O[C@H](COP(=O)(O)OP(=O)(O)OC[C@H]3O[C@@H](n4cnc5c(N)ncnc54)[C@H](OP(=O)(O)O)[C@@H]3O)[C@@H](O)[C@H]2O)C=CC1.
T1 construct: pET28a, His-tag, E. coli BL21(DE3), Ni-NTA
Kind of data set: cytochrome c reduction, A550. The data set is classed as biochemical, Panax ginseng. The settings on record: 100 μmol/L cytochrome c, NADPH 0-400 μmol/L, 50 mmol/L Tris HCl pH 7.4, 0.1 mmol/L EDTA, 25 °C.

PgCPR1 (Panax ginseng), sequence (chain, as listed by the source): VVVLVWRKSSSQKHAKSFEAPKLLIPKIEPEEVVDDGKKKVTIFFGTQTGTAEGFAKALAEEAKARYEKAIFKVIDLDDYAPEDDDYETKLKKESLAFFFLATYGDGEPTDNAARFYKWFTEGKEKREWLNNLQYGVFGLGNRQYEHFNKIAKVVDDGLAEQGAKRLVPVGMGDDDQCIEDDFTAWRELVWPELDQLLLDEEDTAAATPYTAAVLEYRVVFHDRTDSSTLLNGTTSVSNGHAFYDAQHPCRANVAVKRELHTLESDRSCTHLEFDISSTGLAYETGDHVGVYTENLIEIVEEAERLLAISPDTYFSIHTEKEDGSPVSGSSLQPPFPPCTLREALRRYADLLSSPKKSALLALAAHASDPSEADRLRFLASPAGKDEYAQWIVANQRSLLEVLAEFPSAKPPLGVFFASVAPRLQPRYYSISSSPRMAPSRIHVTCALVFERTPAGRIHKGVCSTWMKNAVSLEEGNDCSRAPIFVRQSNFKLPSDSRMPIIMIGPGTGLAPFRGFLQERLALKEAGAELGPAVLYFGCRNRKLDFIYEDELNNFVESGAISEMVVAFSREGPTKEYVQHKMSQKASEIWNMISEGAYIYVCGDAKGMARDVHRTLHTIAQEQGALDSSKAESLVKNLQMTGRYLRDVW
PgCPR2 (Panax ginseng), sequence (chain, as listed by the source): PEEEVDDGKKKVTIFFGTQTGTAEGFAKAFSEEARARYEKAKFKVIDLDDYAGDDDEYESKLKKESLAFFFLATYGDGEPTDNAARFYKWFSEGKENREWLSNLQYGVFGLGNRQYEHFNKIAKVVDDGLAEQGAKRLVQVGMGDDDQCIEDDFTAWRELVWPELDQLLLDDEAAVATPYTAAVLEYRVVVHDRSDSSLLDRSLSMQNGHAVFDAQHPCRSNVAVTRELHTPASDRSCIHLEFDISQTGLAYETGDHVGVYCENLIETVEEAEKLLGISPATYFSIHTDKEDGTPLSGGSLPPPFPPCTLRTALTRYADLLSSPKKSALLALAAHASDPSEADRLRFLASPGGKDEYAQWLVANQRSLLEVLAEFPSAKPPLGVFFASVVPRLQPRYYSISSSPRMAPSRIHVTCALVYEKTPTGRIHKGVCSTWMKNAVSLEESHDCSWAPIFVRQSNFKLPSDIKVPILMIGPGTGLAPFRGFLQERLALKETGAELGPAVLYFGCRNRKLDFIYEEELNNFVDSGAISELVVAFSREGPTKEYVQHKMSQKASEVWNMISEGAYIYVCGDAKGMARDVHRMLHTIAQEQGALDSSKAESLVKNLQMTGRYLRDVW

Consider AtCPR1 (Arabidopsis thaliana), for which, in data set [1], the Km amounted to 84.61 ± 8.548 µM, the kcat was 2.74 s⁻¹ and the kcat/Km was 32400 M⁻¹ s⁻¹.
On to PgCPR1 (Panax ginseng), for which, in data set [2], the Km was 62.9 ± 5.807 µM, the kcat is 3.32 ± 0.0968 s⁻¹ and the kcat/Km is 52800 M⁻¹ s⁻¹.
The matching figures for PgCPR2 (Panax ginseng): 85.27 ± 6.07 µM, 3.38 ± 0.087 s⁻¹ and 39600 M⁻¹ s⁻¹.
